{
  "source": "paper PMC6812003",
  "about": "(Redox Biology, 2019)",
  "molecules": {"B1": {"name": "endogenous p16^INK4A, P42771 1-156 (natural protein)", "chain": "MEPAAGSSMEPSADWLATAAARGRVEEVRALLEAGALPNAPNSYGRRPIQVMMMGSARVAELLLLHGAEPNCADPATLTRPVHDAAREGFLDTLVVLHRAGARLDVRDAWGRLPVDLAEELGHRDVARYLRAAAGGTRGSNHARIDAAEGPSDIPD"}, "B2": {"name": "FLAG-p16^INK4A (wild type) (natural protein, human, UniProt P42771 9-156, looked up)", "chain": "MEPSADWLATAAARGRVEEVRALLEAGALPNAPNSYGRRPIQVMMMGSARVAELLLLHGAEPNCADPATLTRPVHDAAREGFLDTLVVLHRAGARLDVRDAWGRLPVDLAEELGHRDVARYLRAAAGGTRGSNHARIDAAEGPSDIPD"}},
  "key": {"[1]": {"target": "recombinant p16^INK4A (wild type) (Homo sapiens) (UniProt P42771)", "assay": "non-reducing SDS-PAGE"}, "[2]": {"target": "T1, endogenous p16^INK4A (human (endogenous in HEK293T)), P42771", "T1 chain": "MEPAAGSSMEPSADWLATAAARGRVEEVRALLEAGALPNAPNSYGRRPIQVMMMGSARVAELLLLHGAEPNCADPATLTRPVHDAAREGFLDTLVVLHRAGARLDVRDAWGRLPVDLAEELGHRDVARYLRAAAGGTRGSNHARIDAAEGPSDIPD", "assay": "co-IP", "settings": "remark: other sources report otherwise"}, "co-IP": {"target": "the molecule itself", "assay": "co-IP"}},
  "data": [
    {"molecule": "recombinant p16^INK4A (wild type) (from UniProt P42771 1-156) (natural protein)", "values": [
      {"measurement": "stoichiometry N", "setting": "[1]", "value": 2}
    ]},
    {"molecule": "B1", "values": [
      {"measurement": "stoichiometry N", "setting": "[2]", "value": 2}
    ]},
    {"molecule": "B2", "values": [
      {"measurement": "stoichiometry N", "setting": "co-IP", "value": 2}
    ]}
  ]
}
